Measurements published in PMC3025051 (Cell cycle (Georgetown, Tex.), 2011).

Target: T1, MAL-Myc-tagged Cdc18 wild type (bacterial recombinant) (S. pombe, UniProt P41411 1-577)
T1 sequence (looked up): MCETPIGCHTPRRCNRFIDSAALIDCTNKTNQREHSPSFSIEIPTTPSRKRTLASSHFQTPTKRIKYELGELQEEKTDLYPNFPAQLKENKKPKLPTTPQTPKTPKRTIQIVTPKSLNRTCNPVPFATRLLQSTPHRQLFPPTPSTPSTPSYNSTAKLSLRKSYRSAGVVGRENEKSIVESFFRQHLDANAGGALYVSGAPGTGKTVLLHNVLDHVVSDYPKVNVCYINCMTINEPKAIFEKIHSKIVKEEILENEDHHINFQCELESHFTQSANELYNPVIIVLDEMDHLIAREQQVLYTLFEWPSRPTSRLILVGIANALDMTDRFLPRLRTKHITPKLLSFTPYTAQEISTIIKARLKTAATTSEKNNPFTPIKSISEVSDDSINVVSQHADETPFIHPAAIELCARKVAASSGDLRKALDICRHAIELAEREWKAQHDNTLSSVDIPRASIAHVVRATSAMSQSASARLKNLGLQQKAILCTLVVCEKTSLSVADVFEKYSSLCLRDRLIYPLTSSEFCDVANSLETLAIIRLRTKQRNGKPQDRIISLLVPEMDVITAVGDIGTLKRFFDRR
Experiment: pull-down

binding result: binds
B1: 6his-FLAG-Swi6 wild type (bacterial recombinant) (natural protein, S. pombe, UniProt P40381 1-328, looked up)
chain: MKKGGVRSYRRSSTSKRSVIDDDSEPELPSMTKEAIASHKADSGSSDNEVESDHESKSSSKKLKENAKEEEGGEEEEEDEYVVEKVLKHRMARKGGGYEYLLKWEGYDDPSDNTWSSEADCSGCKQLIEAYWNEHGGRPEPSKRKRTARPKKPEAKEPSPKSRKTDEDKHDKDSNEKIEDVNEKTIKFADKSQEEFNENGPPSGQPNGHIESDNESKSPSQKESNESEDIQIAETPSNVTPKKKPSPEVPKLPDNRELTVKQVENYDSWEDLVSSIDTIERKDDGTLEIYLTWKNGAISHHPSTITNKKCPQKMLQFYESHLTFRENE
